Experimental data from patent publication US20180346569A1 (LYVGEN BIOPHARMA, published 2018).

Tests used:
[1] = biological target: T1, Human PD-1-His tag protein (Sino Biological Inc. Cat#10377-H08H-100) (human, UniProt Q15116 25-167); assay: ELISA, antibody coated at 1 ug/ml, human PD-1-His titrated (the concentration axis is that of PD-1-His), detected with anti-His-HRP
T1 construct: Bought protein; not shown: His tag
Procedure: (§1) The PD-1 antibody sample was diluted in PBS to 1 ug/ml and was coated in an ELISA plate (Costar, Cat#3590, high binding) 100 ul/well, 4° C. overnight. The plate was decanted and blocking solution (eBioscience, ELISA/ELISPOT Diluent, Cat#00-4202-55) was added 200 ul/well. After 1 hour incubation at room temperature, the plate was washed with PBST three times. […] The plate was incubated 1 hour at room temperature and then washed four times with PBST. Anti-His-HRP (Genscript Cat#A00612) at 1:2000 dilution was added to the plate 100 ul/well. The plate was incubated 1 hour at room temperature followed by washing with PBST four times. The TMB substrate solution was added 100 ul/well. Let the color develop for 15 minutes and add 50 ul/well 1M H2SO4 to terminate the reaction. Absorbance at 450 nm was determined in FlexStation 3 ELISA reader.

[2] = biological target: T2, rhesus monkey PD-1-His (Sino Biological Inc. Cat#90305-KO8H-100) (rhesus monkey, UniProt B0LAJ2 25-170); assay: ELISA, antibody coated at 1 ug/ml, PD-1-His titrated, detected with anti-His-HRP
T2 construct: Bought protein; also called Rehsus monkey PD-1
Procedure: as §1

[3] = biological target: T3, Cyno PD-1-Fc tag (Sino Biological Inc. Cat#90311-CO2H) (cynomolgus monkey, UniProt B0LAJ3 25-170); assay: ELISA, Cyno PD-1-Fc coated at 2 ug/ml, antibody titrated, detected with anti-human Ig kappa-HRP
T3 construct: Bought Fc fusion; also called PD-1 of cynomolgus monkey; Cynomolgus monkey PD-1
Procedure: To determine binding to PD-1 of cynomolgus monkey, Cyno PD-1—Fc tag (Sino Biological Inc. Cat#90311-CO2H) was diluted in PBS to 2 ug/ml, and 100 ul/well was used to coat an ELISA plate (Costar, Cat#3590, high binding), 4° C. overnight. The plate was decanted and blocking solution (eBioscience, ELISA/ELISPOT Diluent, Cat#00-4202-55) was added, 200 ul/well. After 1 hour incubation at room temperature, the plate was washed with PBST three times. The testing PD-1 antibody was diluted in blocking buffer to 0, 0.001, 0.01, 0.1, 1.10 ug/ml and added to the plate, 100 ul/well. The plate was incubated 1 hour at room temperature and then washed four times with PBST. Anti-Hu IgG-HRP (goat-anti-human Ig kappa-HRP, Millipore, Cat# AP502P) at 1:4000 dilution was added to the plate, 100 ul/well. The plate was incubated 1 hour at room temperature followed by washing with PBST four times. The TMB substrate solution was added 100 ul/well. The color developed for 15 minutes and 50 ul/well of 1M H2SO4 was added to terminate the reaction. Absorbance at 450 nm was determined in FlexStation 3 ELISA reader.

[4] = biological target: T2, rhesus monkey PD-1-His (Sino Biological …); assay: ELISA, antibody coated at 1 ug/ml, rhesus monkey PD-1-His titrated (the concentration axis is that of PD-1-His), detected with anti-His-HRP
Procedure: as §1

[5] = biological target: T4, Human PD-1 (captured on an anti-His IgG Biacore chip) (human, UniProt Q15116 25-167); assay: SPR (Biacore), human PD-1 captured on anti-His IgG chip, SSI-361 injected at 3.125-50 nM, 1:1 model
T4 construct: It may be the same Sino Biological PD-1-His protein as m3; also called PD-1 antigen; not shown: His tag implied by capture on anti-His IgG
Procedure: Flow cells of a Series S CMS sensor chip (GE Healthcare Life Sciences) were activated with freshly mixed 50 mmol/L NHS and 200 mmol/L EDC for 360 seconds (10 μL/min). Then, anti-His IgGs, in 10 mmol/L NaAC (pH 5.0) was injected onto the activated flow cell (10 μL/min) for 300 seconds (10 μL/min) with HBS-EP+(10 mM HEPES, 150 mM NaCl, 3 mM EDTA and 0.05% P20, pH 7.4) as the running buffer. The remaining active coupling sites were blocked with a 420 second injection of 1 mol/L ethanolamine (10 μL/min). This procedure was repeated for 2 times to immobilized protein on 2 flow cells individually. Low flow rate overnight was maintained for the equilibrium of the immobilized proteins. Human PD-1 was captured on a flow cell 2 (10 μL/min). […] Flow cell 1 without captured antigen was used as reference flow cell. To remove the tested antibody and antigen from the surface, 10 mM glycine-HCl pH 1.5 was injected for 60s (10 μL/min, flow cell 1-2). The above procedures were repeated for each concentration of serially diluted tested antibody. The KD value (Table 1) was evaluated using Biacore X100 evaluation software 2.0 with 1:1 interaction binding model. Flow cell 1 was used as reference flow cell for data subtraction.

[6] = biological target: T1, Human PD-1-His tag protein (Sino …); assay: ELISA, antibody coated at 1 ug/ml, PD-1-His titrated, detected with anti-His-HRP; antibody coated on the plate, human PD-1-His titrated
Procedure: as §1

T4 sequence (Q15116 25-167): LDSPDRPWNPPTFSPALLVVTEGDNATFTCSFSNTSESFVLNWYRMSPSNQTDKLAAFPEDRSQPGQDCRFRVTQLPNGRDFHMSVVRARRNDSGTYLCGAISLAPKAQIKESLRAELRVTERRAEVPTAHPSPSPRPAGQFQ
T2 sequence (B0LAJ2 entry or part of it limits assumed): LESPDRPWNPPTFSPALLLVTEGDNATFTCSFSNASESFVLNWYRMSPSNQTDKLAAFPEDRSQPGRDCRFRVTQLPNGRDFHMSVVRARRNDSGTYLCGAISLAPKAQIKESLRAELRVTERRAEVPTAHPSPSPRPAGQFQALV
T1 sequence (Q15116 25-167 limits assumed): as the sequence (Q15116 25-167) above
T3 sequence (B0LAJ3 entry or part of it limits assumed): as the sequence (B0LAJ2 entry or part of it limits assumed) above, with P10A, R67Q, Q75R counted along it

B1: SSI-361 (humanized SHB-617 in human IgG4 S228P/kappa) (antibody, V domains shown)
VH: QVTLKESGPALVKPTQTLTLTCTFSGFSLSTSGTCVSWIRQPPGKALEWLATICWEDSKGYNPSLKSRLTISKDTSKNQAVLTMTNMDPVDTATYYCARREDSGYFWFPYWGQGTLVTVSS
VL: NIQMTQSPSSLSASVGDRVTITCKAGQNVNNYLAWYQQKPGKAPKVLIFNANSLQTGVPSRFSGSGSGTDFTLTISSLQPEDFATYYCQQYNSWTTFGGGTKVEIKR
notes: Full human IgG4 (hinge S228P, EU numbering)/kappa, expressed in HEK293 or CHO cells; also called PD-1 Ab01
EC50 (read off the curve) [1]: ~0.03 µg/mL
EC50 [2]: 0.39 nM
EC50 [3]: 0.08 nM
EC50 (read off the curve) [3]: ~0.01 µg/mL
EC50 (read off the curve) [4]: ~0.05 µg/mL
Kd [5]: 5.07 nM
koff [5]: 0.00117 s⁻¹
kon [5]: 230000 M⁻¹ s⁻¹
EC50 [6]: 0.33 nM
